Laboratory results: publication PMC6922461

Biological target: trivalent Strep-Tactin-SpyCatcher

B1: Siglec-14 with N-terminal Strep-tag II, on THP-1 cells (receptor)
chain: SAWSHPQFEKEKPVYELQVQKSVTVQEGLCVLVPCSFSYPWRSWYSSPPLYVYWFRDGEIPYYAEVVATNNPDRRVKPETQGRFRLLGDVQKKNCSLSIGDARMEDTGSYFFRVERGRDVKYSYQQNKLNLEVTALIEKPDIHFLEPLESGRPTRLSCSLPGSCEAGPPLTFSWTGNALSPLDPETTRSSELTLTPRPEDHGTNLTCQVKRQGAQVTTERTVQLNVSYAPQNLAISIFFRNGTGTALRILSNGMSVPIQEGQSLFLACTVDSNPPASLSWFREGKALNPSQTSMSGTLELPNIGAREGGEFTCRVQHPLGSQHLSFILSVQRSSSSCICVTEKQQGSWPLVLTLIRGALMGAGFLLTYGLTWIYYTRCGGPQQSRAERPG
- IL-8 secretion of THP-1 Siglec-14–Strep-tag II DAP12 cells against Strep-tag II–binding sites of trivalent generic ligand per CHO cell; mean EC50 (Strep-tag II–binding sites per cell): 200000
